Measured values: paper PMC5309861, “Mechanistic insight into the substrate specificity of 1,2-β-oligoglucan phosphorylase from Lachnoclostridium phytofermentans” (Scientific Reports, 2017)

Substrate: O=P(O)(O)O[C@H]1O[C@H](CO)[C@@H](O)[C@H](O)[C@H]1O
Test: phosphate release (molybdate colorimetry), Michaelis-Menten fit
Type: biochemical, Lachnoclostridium phytofermentans
Details: synthetic reaction, donor, pH 7.0, 30 °C, acceptor not stated
Text: phosphate release (molybdate colorimetry), Michaelis-Menten fit on LpSOGP

B1: LpSOGP (Lachnoclostridium phytofermentans ISDg) (protein)
chain: MILKTLSAPIILENSNSTFTFLPGGDNFEWIHESIMINAFQGNTLDGSTNNLYLRIYKDNSLAFYPLIGMNSKSTIKSGTSTLIFEGTAEDISYTVTFRLTPYGIWFWDISLSGNCNKADIIYSQDIGVGTKGSVNSNELYLAQYLGHSIFQGDYGYVICSRQNMAQGDLFPYLQQGSLGIRSIAYSTDGTQFFGLSYKKTNIPEALYGDLPSKNKQYELAHTALQTEAFSLSGTKQFSFYGICKTNHPEVIREIEYIQELEKAYAYHESGEILPVNVPTLQNIGAPYASSRWDAKQVEHYFPKRLLEEKEEEALLSFFTPEKSHVVLQDKELTTERPHGHILMTNFDVTKVPQGVVSSTNYMYGAFNCQFVVGNTTYNKLLSNHRGLLNIQKDSGQRIFIKIGDCYRQLTLPAAYEMNVAGSTWYYQLDEDVLIITSFAMYNRPEIVLKVQSLGHKKYDFIVTHQLTVGPNEYENEIKLTREGNILQLSPTDPVVTNHFYPELSFRMRIPEDCTLSDDSIFFHNNTTINPSLLSIEILQKSSFDIVMQGFDTGNVIPFLDQYDYKEQLEAYRIYYDQLVCNFKLSAPDKIPLSAEKLNAIIHWYAHDALIHFASPHGLEQSGGAAWGTRDVCQGPIEFFLTTGHFDLVRHILITLYSHQIEGGFEWPQWFMFDHYPIHQEDCHGDVVFWPLKAISDYIQATGDTSILNELVDYRTAKDALPTNQPETILIHIKRAVTTIKNRYLSGTALISYAGGDWDDTLQPANSELKENLVSAWTQALAEQTLELLCSAIKGIDHDFSKELSHMANDIRTSFYQYLIKDGVIAGFLYRESEEHMKYMLHPDDTESSIHYRLLPLTRSIIAQLADFKLATRNLEIIDEHLACPDGVRLMDHPASYSGGISKIFLRAEQAANVGREISLQYVHAHIRYIEALATMGLSKKAWDALMRINPILLTDYVPNALTRQSNVYFSSSEGCFDDRYEYAKNFDKLRTGDINVKGGWRLYSSGPGIYIRRIIADLLGIRFGHNVIHIDPVVTKELDGVTLQFTCFGKTVFFTYHVDDTMDKHICVKSNNNILPGDNLNNIYRDGGIQIAKDVFLSAAMSDNNFHIYVKN
notes: full length with C-terminal His6 tag (pET28a, kept); E. coli BL21(DE3); theoretical mass 169640 Da as printed; monomer; structure residues 1-1113
- Km: 2600 ± 300 µM
- kcat: 28 ± 1 s⁻¹
- kcat/Km: 11000 ± 1000 M⁻¹ s⁻¹
